These results are taken from IntAct's records for PubMed 22495310.

To fix the notation:
B1: CREB-regulated transcription coactivator 2 (Mus musculus), Q3U182 (parent)
chain: MATSGANGPGSATASASNPRKFSEKIALQKQRQAEETAAFEEVMMDIGSTRLQAQKLRLAYTRSSHYGGSLPNVNQIGCGLAEFQSPLHSPLDSSRSTRHHGLVERVQRDARRMVSPLRRYPRHIDSSPYSPAYLSPPPESGWRRMMPWGNLPAEKGQLFRLPSALNRTSSDSALHTSVMNPNPQDTYPGPTPPSVLPSRRGGGFLDGEMDAKVPAIEENVVDDKHLLKPWDAKKLSSSSSRPRSCEVPGINIFPSPDQPANVPVLPPAMNTGGSLPDLTNLHFPPPLPTPLDPEETVYPSLSGGNSTTNLTHTMTHLGISGGLGLGPSYDVPGLHSPLSHPSLQSSLSNPNLQASLSSPQPQLQGSHSHPSLPASSLAHHALPTTSLGHPSLSAPALSSSSSSSSTSSPVLSAPPYPASTPGASPRHRRVPLSPLSLPAGPADARRSQQQLPKQFSPTMSPTLSSITQGVPLDTSKLPTDQRLPPYPYSPPSLVIPTHPPTPKSLQQLPSQACLVQPSGGQPPGRQPHYGALYPPGSSGHGQQPYHRPINDFSLGNLEQFNMESPSTSLVLDPPAFSEGPGFLGSEGSMSGPQDPHVLNHQNLTHCSRHGSGPNIILTGDSSPGFSKEIAAALAGVPGFEVSASGLELGLGLEDELRMEPLGLEGLTMLSDPCALLPDPAVEDSFRSDRLQ

Variants of B1 are the subject of the assay. As to conditions: with pp2ba_mouse Ppp3ca.
In the case of P614G;I616A;L618A;T619A, the “effect of a mutation on the interaction” value is “decreasing interaction strength”.
